According to PMC11960969, “Mdga2 deficiency leads to an aberrant activation of BDNF/TrkB signaling that underlies autism-relevant synaptic and behavioral changes in mice” (PLOS Biology, 2025):

B1: sp¦P06802¦ENPP1_MOUSE (protein, UniProt P06802 1-906, looked up)
Ectonucleotide …: MERDGDQAGHGPRHGSAGNGRELESPAAASLLAPMDLGEEPLEKAERARPAKDPNTYKVLSLVLSVCVLTTILGCIFGLKPSCAKEVKSCKGRCFERTFSNCRCDAACVSLGNCCLDFQETCVEPTHIWTCNKFRCGEKRLSRFVCSCADDCKTHNDCCINYSSVCQDKKSWVEETCESIDTPECPAEFESPPTLLFSLDGFRAEYLHTWGGLLPVISKLKNCGTYTKNMRPMYPTKTFPNHYSIVTGLYPESHGIIDNKMYDPKMNASFSLKSKEKFNPLWYKGQPIWVTANHQEVKSGTYFWPGSDVEIDGILPDIYKVYNGSVPFEERILAVLEWLQLPSHERPHFYTLYLEEPDSSGHSHGPVSSEVIKALQKVDRLVGMLMDGLKDLGLDKCLNLILISDHGMEQGSCKKYVYLNKYLGDVNNVKVVYGPAARLRPTDVPETYYSFNYEALAKNLSCREPNQHFRPYLKPFLPKRLHFAKSDRIEPLTFYLDPQWQLALNPSERKYCGSGFHGSDNLFSNMQALFIGYGPAFKHGAEVDSFENIEVYNLMCDLLGLIPAPNNGSHGSLNHLLKKPIYNPSHPKEEGFLSQCPIKSTSNDLGCTCDPWIVPIKDFEKQLNLTTEDVDDIYHMTVPYGRPRILLKQHHVCLLQQQQFLTGYSLDLLMPLWASYTFLRNDQFSRDDFSNCLYQDLRIPLSPVHKCSYYKSNSKLSYGFLTPPRLNRVSNHIYSEALLTSNIVPMYQSFQVIWHYLHDTLLQRYAHERNGINVVSGPVFDFDYDGRYDSLEILKQNSRVIRSQEILIPTHFFIVLTSCKQLSETPLECSALESSAYILPHRPDNIESCTHGKRESSWVEELLTLHRARVTDVELITGLSFYQDRQESVSELLRLKTHLPIFSQED
B2: sp¦Q922B6¦TRAF7_MOUSE (protein, UniProt Q922B6 1-594, looked up)
E3 ubiquitin-protein ligase …: MPPINTPRRSDSAISVRSLHSESSMSLRSTFSLPEEEEEPEPLVFAEQPSVKLCCQLCCSVFKDPVITTCGHTFCRRCALKSEKCPVDNAKLTVVVNNIAVAEQIGELFIHCRHGCHAAGTGKPGVFEVDPRGCPFTIKLSARKDHESSCDYRPVRCPNNPSCPPLLKMNLEAHLKECEHIKCPHSKYGCTFIGNQDTYETHLETCRFEGLKEFLQQTDDRFHEMHVALAQKDQEIAFLRSMLGKLSEKIDQLEKSLELKFDVLDENQSKLSEDLMEFRRDASMLNDELSHINARLNMGILGSYDPQQIFKCKGTFVGHQGPVWCLCVYSMGDLLFSGSSDKTIKVWDTCTTYKCQKTLEGHDGIVLALCIQGCKLYSGSADCTIIVWDIQNLQKVNTIRAHDNPVCTLVSSHNMLFSGSLKAIKVWDIVGTELKLKKELTGLNHWVRALVAAQSYLYSGSYQTIKIWDIRTLDCIHVLQTSGGSVYSIAVTNHHIVCGTYENLIHVWDIESKEQVRTLTGHVGTVYALAVISTPDQTKVFSASYDRSLRVWSMDNMICTQTLLRHQGSVTALAVSRGRLFSGAVDSTVKVWTC
B3: sp¦Q3TBL6¦TP8L3_MOUSE (protein, UniProt Q3TBL6 1-204, looked up)
Tumor necrosis factor …: MDSDSGEQSEGEPGTAAGPHVFSSKNLALQAQKKILSKIASKTVANMLIDDTSSEIFDELYKVTEIHTHNKKEAHKIMKDAIKVAIKIGILYRNKQFSQEEVIIVEKLRKKLNQTAMTMVSFYEVEYTFDTNVLSKLLHECKDLVHELVQRHLTPRTHGRINHVFNHFADVEFLSTLYGPHGNCRPNLKRICEGINKLLDDKIL

Test system: hippocampal proteins
Test: DIA quantification proteomics, hippocampus of Mdga2+/- vs WT mice
Parameters: species or system mouse
Details: S3 Table, downregulated DEPs; for log2FC: Mdga2+/- vs WT mouse hippocampus (HET-HIP-VS-WT-HIP), SE, pvalue and adj_pvalue in own columns c3-c5; for Class: regulation class of the protein, HET-HIP-VS-WT-HIP
How it was run: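 Hippocampi from 1.5–2-month-old male Mdga2+/− mice and WT littermates; 100 μg protein trypsin-digested, peptides high-pH fractionated. DDA-built spectral library, DIA by nano-LC–MS/MS with Spectronaut and mProphet QC. DEPs called at fold change >1.1 and p <0.05.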

Row | Molecule | log2FC | Class
1 | B1 | -2.366 | Down
2 | B2 | -2.686 | Down
3 | B3 | -2.713 | Down
